This passage reports Peptide exchange results from US12195506B2, “Immunotherapy with A*01 restricted peptides and combination of peptides against cancers and related methods” (Immatics Biotechnologies GmbH, priority 2018, dated 2025).

The target in this assay is HLA-A*01:01 (Homo sapiens, UniProt P04439, A114D/A174V/A182V/D101N/D185E/E176A/E190D/L180R/Q94H/R68K/S129P/T187R/V100A/V91M/W191G). Briefly: MHC binding assay: UV-ligand exchange, ELISA of stabilized MHC complexes (peptide exchange yield). Conditions: binding to HLA-A*01:01, UV-ligand exchange. From the text: Candidate peptides for T cell based therapies according to the present invention were further tested for their MHC binding capacity (affinity). The individual peptide-MHC complexes were produced by UV-ligand exchange, where a UV-sensitive peptide is cleaved upon UV-irradiation and exchanged with the peptide of interest as analyzed. Only peptide candidates that can effectively bind and stabilize the peptide-receptive MHC molecules prevent dissociation of the MHC complexes. To determine the yield of the exchange reaction, an ELISA was performed based on the detection of the light chain (β2m) of stabilized MHC complexes. The assay was performed as generally described in Rodenko et al. (Rodenko et al., 2006)
96 well MAXISorp plates (NUNC) were coated over night with 2 ug/ml streptavidin in PBS at room temperature, washed 4× and blocked for 1 h at 37° C. in 2% BSA containing blocking buffer. Refolded HLA-A*02:01/MLA-001 monomers served as standards, covering the range of 15-500 ng/ml. Peptide-MHC monomers of the UV-exchange reaction were diluted 100-fold in blocking buffer. Samples were incubated for 1 h at 37° C., washed four times, incubated with 2 ug/ml HRP conjugated anti-β2m for 1 h at 37° C., washed again and detected with TMB solution that is stopped with […]. Absorption was measured at 450 nm.
(ELISA stands for enzyme-linked immunosorbent assay.)
Regarding “1 (TLDSTRTLY; listed as Homo sapiens) [compound 1]”, the Peptide exchange entry is given as “++++ (>75% = ++++)”. In the case of “2 (VDPIGHLY; listed as Homo sapiens) [compound 2]” it was “++ (>20% = ++)”; in that of “3 (FGTTPAAEYF; listed as Homo sapiens) [compound 3]”, “++ (>20% = ++)”; in that of “4 (RIEAIRAEY; listed as Homo sapiens) [compound 4]”, “++ (>20% = ++)”. Under “5 (FMVIAGMPLFY; listed as Homo sapiens) [compound 5]” stands “+++ (>50 = +++)”.

For the substance “6 (ARDPITFSF; listed as Homo sapiens) [compound 6]”, the Peptide exchange entry was “++ (>20% = ++)”. For the substance “7 (ASDDVRIEVGLY; listed as Homo sapiens) [compound 7]”, the Peptide exchange entry was “++++ (>75% = ++++)”.

For the substance “8 (TSRAANIPGY; listed as Homo sapiens) [compound 8]”, the Peptide exchange result is listed as “+ (>10% =+)”.

As to “9 (QLDSTLDSY; listed as Homo sapiens) [compound 9]”, the Peptide exchange entry is listed as “+++ (>50 = +++)”. For “13 (NTHTGTRPY; listed as Homo sapiens) [compound 13]”, the Peptide exchange result is “++ (>20% = ++)”. Under “14 (QSEKEPGQQY; listed as Homo sapiens) [compound 14]” stands “+++ (>50 = +++)”. Under “15 (YLDSSKPAVY; listed as Homo sapiens) [compound 15]” stands “+++ (>50 = +++)”; under “16 (NSDISIPEY; listed as Homo sapiens) [compound 16]”, “+++ (>50 = +++)”; under “17 (ASWAVLCYY; listed as Homo sapiens) [compound 17]”, “+++ (>50 = +++)”. In the case of “20 (LSAQHRMLA; listed as Homo sapiens) [compound 20]” it was “++ (>20% = ++)”; in that of “21 (LSSAVNPIIY; listed as Homo sapiens) [compound 21]”, “++ (>20% = ++)”; in that of “22 (VMDTLGLFY; listed as Homo sapiens) [compound 22]”, “++++ (>75% = ++++)”. Turning to “23 (DTDPLKAAGL; listed as Homo sapiens) [compound 23]”, the Peptide exchange entry was “+ (>10% =+)”. In the case of “25 (AMMQEAQLAY; listed as Homo sapiens) [compound 25]” it was “+++ (>50 = +++)”; in that of “28 (PSEVPVDSHYY; listed as Homo sapiens) [compound 28]”, “+++ (>50 = +++)”.

For “29 (TLEDLDNLYNY; listed as Homo sapiens) [compound 29]”, the Peptide exchange result is reported as “+++ (>50 = +++)”.

Regarding “30 (VTTDKPRAY; listed as Homo sapiens) [compound 30]”, the Peptide exchange entry was “++ (>20% = ++)”. Under “31 (VSDHLQAGMLGQY; listed as Homo sapiens) [compound 31]” stands “+++ (>50 = +++)”. Under “32 (GTDKQNSTLRY; listed as Homo sapiens) [compound 32]” stands “+++ (>50 = +++)”; under “34 (SSWSAGENDSY; listed as Homo sapiens) [compound 34]”, “+++ (>50 = +++)”. Under “35 (SWSAGENDSYS; listed as Homo sapiens) [compound 35]” stands “+ (>10% =+)”; under “36 (MTSTEQSLY; listed as Homo sapiens) [compound 36]”, “+++ (>50 = +++)”; under “38 (KSWSQSSSLMY; listed as Homo sapiens) [compound 38]”, “+++ (>50 = +++)”. On to “39 (WSQSSSLMY; listed as Homo sapiens) [compound 39]”, for which the Peptide exchange entry was “++++ (>75% = ++++)”. In the case of “40 (TSDQLGYSY; listed as Homo sapiens) [compound 40]” it was “+++ (>50 = +++)”. In the case of “41 (HSDLLEDSKY; listed as Homo sapiens) [compound 41]” it was “+++ (>50 = +++)”; in that of “43 (ETEPERHLGSY; listed as Homo sapiens) [compound 43]”, “+++ (>50 = +++)”; in that of “44 (IPSFNEMVY; listed as Homo sapiens) [compound 44]”, “++ (>20% = ++)”. In the case of “45 (NLDPNKIY; listed as Homo sapiens) [compound 45]” it was “+ (>10% =+)”; in that of “46 (RSDPGGGGLAYAAY; listed as Homo sapiens) [compound 46]”, “++++ (>75% = ++++)”; in that of “47 (WSDGVPLLY; listed as Homo sapiens) [compound 47]”, “++++ (>75% = ++++)”. Regarding “48 (FTTQDELLVY; listed as Homo sapiens) [compound 48]”, the Peptide exchange entry is given as “+++ (>50 = +++)”. In the case of “49 (GSFSIQHTY; listed as Homo sapiens) [compound 49]” it was “++ (>20% = ++)”. For the substance “50 (ITDEDEDMLSY; listed as Homo sapiens) [compound 50]”, the Peptide exchange entry is on record as “+++ (>50 = +++)”. Under “51 (STEERRLNY; listed as Homo sapiens) [compound 51]” stands “+++ (>50 = +++)”; under “52 (TTQDELLVY; listed as Homo sapiens) [compound 52]”, “+++ (>50 = +++)”; under “55 (ATEGDVLNY; listed as Homo sapiens) [compound 55]”, “+++ (>50 = +++)”. Under “56 (VTEYAEEIYQY; listed as Homo sapiens) [compound 56]” stands “+++ (>50 = +++)”. Consider “57 (ASDPASSTSCY; listed as Homo sapiens) [compound 57]”, for which the Peptide exchange result was “+++ (>50 = +++)”. In the case of “58 (YLENSASWY; listed as Homo sapiens) [compound 58]” it was “++++ (>75% = ++++)”; in that of “59 (FTDSQGNDIK; listed as Homo sapiens) [compound 59]”, “+++ (>50 = +++)”; in that of “62 (VSELVTTGHY; listed as Homo sapiens) [compound 62]”, “+++ (>50 = +++)”. In the case of “63 (TSEISQNALMY; listed as Homo sapiens) [compound 63]” it was “++++ (>75% = ++++)”. Regarding “65 (SSDFDPLVY; listed as Homo sapiens) [compound 65]”, the Peptide exchange entry is “++++ (>75% = ++++)”. Under “67 (NVDQNQNSY; listed as Homo sapiens) [compound 67]” stands “+++ (>50 = +++)”.

In the case of “68 (QSLPEFGLTY; listed as Homo sapiens) [compound 68]”, the Peptide exchange entry is given as “++ (>20% = ++)”. In the case of “69 (QSLPEFGLTYY; listed as Homo sapiens) [compound 69]” it was “++ (>20% = ++)”; in that of “72 (VTDSTTKIAY; listed as Homo sapiens) [compound 72]”, “+++ (>50 = +++)”. In the case of “74 (EMEQQSQEY; listed as Homo sapiens) [compound 74]” it was “++++ (>75% = ++++)”; in that of “76 (QTDVERIKDTY; listed as Homo sapiens) [compound 76]”, “+++ (>50 = +++)”. In the case of “78 (QLDSAVKNLY; listed as Homo sapiens) [compound 78]”, the Peptide exchange result is recorded as “+++ (>50 = +++)”. In the case of “80 (ELCPLPGTSAY; listed as Homo sapiens) [compound 80]” it was “++ (>20% = ++)”.

In the case of “85 (SSDNYEHWLY; listed as Homo sapiens) [compound 85]”, the Peptide exchange result is reported as “++++ (>75% = ++++)”. Under “86 (VDPASNTY; listed as Homo sapiens) [compound 86]” stands “++ (>20% = ++)”; under “87 (AFDDIATYF; listed as Homo sapiens) [compound 87]”, “++ (>20% = ++)”. Under “88 (KEVDPAGHSYI; listed as Homo sapiens) [compound 88]” stands “++ (>20% = ++)”; under “89 (EVYDGREHSAY; listed as Homo sapiens) [compound 89]”, “++ (>20% = ++)”; under “90 (YEDHFPLLF; listed as Homo sapiens) [compound 90]”, “++ (>20% = ++)”. In the case of “92 (TTDDTTAMASAS; listed as Homo sapiens) [compound 92]” it was “++ (>20% = ++)”; in that of “93 (HLKILSPIY; listed as Homo sapiens) [compound 93]”, “+++ (>50 = +++)”. As for “94 (KPSAVKDSIY; listed as Homo sapiens) [compound 94]”, the Peptide exchange entry is “++ (>20% = ++)”. Under “95 (SSDPKAVMF; listed as Homo sapiens) [compound 95]” stands “++ (>20% = ++)”; under “97 (FPAPPAHWFY; listed as Homo sapiens) [compound 97]”, “++ (>20% = ++)”.

For the substance “98 (NFSDLVFTY; listed as Homo sapiens) [compound 98]”, the Peptide exchange entry is “++ (>20% = ++)”.
